Target: T1, Anti-CD28 scFv (VH-linker 1-VL) (biotinylated for capture on neutravidin plates)
Test: phage ELISA, scFv captured on plate;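 further: crude clonal phage supernatants added to wells preincubated with soluble CD28 or with blocking buffer only, bound phage read out by HRP-linked anti-M13 antibody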
Description: (§1) Clonal phage were harvested as crude supernatants and screened via standard enzyme linked immunosorbent assays (ELISAs). […] Prior to the addition of clonal phage, wells were incubated with blocking buffer and CD28 soluble protein or blocking buffer alone. Without washing or aspirating, clonal phage supernatants were then added to the wells and incubated for a short time. Wells were then washed followed by detection of bound phage using a horse radish peroxidase conjugated anti-M13 antibody.

T1 sequence (scFv, as listed by the source): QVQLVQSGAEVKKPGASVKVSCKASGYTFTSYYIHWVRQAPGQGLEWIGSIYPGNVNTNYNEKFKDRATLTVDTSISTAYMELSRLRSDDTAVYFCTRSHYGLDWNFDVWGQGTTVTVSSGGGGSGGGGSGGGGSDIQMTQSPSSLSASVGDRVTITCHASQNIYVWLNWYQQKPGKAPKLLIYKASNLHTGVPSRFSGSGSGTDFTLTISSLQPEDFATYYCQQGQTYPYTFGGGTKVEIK

Going from MDWCPFYLWDECFL [Phage-165] to MNWCPSHLWHMCYF [Phage-171], the “Phage binding ELISA CD28 scFv signal” value falls from 1.02 to 0.702.

First: MFWCPFDMWHFCFN [Phage-200]
Second: MDWCPRDMWAECFF [Phage-190]
The “Phage binding ELISA CD28 scFv signal” value of the first is lower: 2.29 for the first, 2.69 for the second.

Going from MNWCPSYMWDQCFA [Phage-213] to MDWCPRAMWHECFY [Phage-207], the “Phage binding ELISA CD28 scFv signal” value rises from 0.854 to 1.92.

Going from MSWCPRDMWFYCYA [Phage-203] to MDWCPKHMWFMCFN [Phage-195], the “Phage binding ELISA CD28 scFv signal” value rises from 2.25 to 2.4.

First: MDWCPRNMWAQCFA [Phage-199]
Second: MDWCPRYMWNECFN [Phage-215]
The “Phage binding ELISA CD28 scFv signal” value of the first is higher: 2.31 for the first, 0.687 for the second.

First: MDWCPRDMWYECFN [Phage-191]
Second: DVWCPKYMWSLCFN [Phage-192]
The “Phage binding ELISA CD28 scFv signal” value of the first is higher: 2.56 for the first, 2.53 for the second.

Compared with IGKLTLCLNADLVI [Phage-187], MDWCPTDMWHHCFL [Phage-205] is higher in “Phage binding ELISA CD28 scFv signal” value: 0.116 for the first, 2.2 for the second.

Compared with MDWCPSYLWDQCFF [Phage-188], MDWCPWILWNECFN [Phage-179] is higher in “Phage binding ELISA CD28 scFv signal” value: 0.083 for the first, 0.581 for the second.

Compared with MDWCPRAMWDKCFF [Phage-212], MDWCPRAMWNHCFN [Phage-198] is higher in “Phage binding ELISA CD28 scFv signal” value: 0.985 for the first, 2.33 for the second.

Compared with VDWCPRYLWHVCYN [Phage-189], MDWCPKDLWHECFN [Phage-168] is higher in “Phage binding ELISA CD28 scFv signal” value: 0.065 for the first, 0.762 for the second.

First: MDWCPMNMWYQCFN [Phage-216]
Second: MDWCPRHMWYECFF [Phage-197]
The “Phage binding ELISA CD28 scFv signal” value of the first is lower: 0.639 for the first, 2.34 for the second.

Going from MDWCPVSLWDHCFN [Phage-177] to MHWCPINLWNECFS [Phage-184], the “Phage binding ELISA CD28 scFv signal” value falls from 0.616 to 0.316.

Going from MDWCPRDMWFECFA [Phage-210] to MDWCPMDMWVNCFN [Phage-193], the “Phage binding ELISA CD28 scFv signal” value rises from 1.31 to 2.52.

First: MDWCPKHLWNECFN [Phage-174]
Second: MDWCPRDMWDQCFD [Phage-201]
The “Phage binding ELISA CD28 scFv signal” value of the first is lower: 0.663 for the first, 2.29 for the second.

Going from MDWCPSDMWHECYA [Phage-194] to MNWCPSDLWHLCFN [Phage-170], the “Phage binding ELISA CD28 scFv signal” value falls from 2.47 to 0.739.

Compared with MDWCPPYLWYECFA [Phage-172], IHWCPINMWDKCYN [Phage-206] is higher in “Phage binding ELISA CD28 scFv signal” value: 0.692 for the first, 2.08 for the second.

Compared with MSWCPQDLWHVCFN [Phage-167], MDWCPTDMWIVCFA [Phage-208] is higher in “Phage binding ELISA CD28 scFv signal” value: 0.86 for the first, 1.5 for the second.

First: MDWCPMNLWSECFN [Phage-173]
Second: MFWCPRYLWHECFN [Phage-163]
The “Phage binding ELISA CD28 scFv signal” value of the first is lower: 0.67 for the first, 1.08 for the second.

Going from MHWCPRSLWNECYF [Phage-182] to QDWCPTYLWHHCFN [Phage-186], the “Phage binding ELISA CD28 scFv signal” value falls from 0.456 to 0.123.

Compared with IDWCPRDLWALCFN [Phage-183], MDWCPTYMWSECFN [Phage-214] is higher in “Phage binding ELISA CD28 scFv signal” value: 0.37 for the first, 0.754 for the second.

Compared with MYWCPRDLWDVCFN [Phage-181], MDWCPAYLWAECFS [Phage-175] is higher in “Phage binding ELISA CD28 scFv signal” value: 0.512 for the first, 0.64 for the second.

Compared with IDWCPQDMWFYCFN [Phage-209], MDWCPRYMWYQCFS [Phage-196] is higher in “Phage binding ELISA CD28 scFv signal” value: 1.42 for the first, 2.36 for the second.

Going from MDWCPKFLWDLCFA [Phage-164] to MDWCPSDLWHECFH [Phage-176], the “Phage binding ELISA CD28 scFv signal” value falls from 1.07 to 0.629.

In the case of MFWCPMDMWDQCFN [Phage-202], the “Phage binding ELISA CD28 scFv signal” value is reported as 2.26.

Target: T1, Anti-CD28 scFv (VH-linker 1-VL)
Test: phage ELISA, scFv captured on plate, competitor soluble CD28;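 further: crude clonal phage supernatants added to wells pre-incubated with soluble CD28 or with blocking buffer only as control, bound phage read out with HRP-linked anti-M13 antibody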
Description: as §1

Going from MDWCPFYLWDECFL [Phage-165] to MNWCPSHLWHMCYF [Phage-171], the “Phage binding ELISA CD28 scFv signal in presence of CD28” value rises from 0.141 to 0.192.

Going from MFWCPFDMWHFCFN [Phage-200] to MDWCPRDMWAECFF [Phage-190], the “Phage binding ELISA CD28 scFv signal in presence of CD28” value rises from 0.469 to 2.26.

Compared with MNWCPSYMWDQCFA [Phage-213], MDWCPRAMWHECFY [Phage-207] is higher in “Phage binding ELISA CD28 scFv signal in presence of CD28” value: 0.105 for the first, 0.129 for the second.

First: MSWCPRDMWFYCYA [Phage-203]
Second: MDWCPKHMWFMCFN [Phage-195]
The “Phage binding ELISA CD28 scFv signal in presence of CD28” value of the first is lower: 0.174 for the first, 0.372 for the second.

Going from MDWCPRNMWAQCFA [Phage-199] to MDWCPRYMWNECFN [Phage-215], the “Phage binding ELISA CD28 scFv signal in presence of CD28” value falls from 0.209 to 0.128.

First: MDWCPRDMWYECFN [Phage-191]
Second: DVWCPKYMWSLCFN [Phage-192]
The “Phage binding ELISA CD28 scFv signal in presence of CD28” value of the first is lower: 0.235 for the first, 0.418 for the second.

First: IGKLTLCLNADLVI [Phage-187]
Second: MDWCPTDMWHHCFL [Phage-205]
The “Phage binding ELISA CD28 scFv signal in presence of CD28” value of the first is lower: 0.1 for the first, 0.126 for the second.

Going from MDWCPSYLWDQCFF [Phage-188] to MDWCPWILWNECFN [Phage-179], the “Phage binding ELISA CD28 scFv signal in presence of CD28” value rises from 0.079 to 0.137.

Going from MDWCPRAMWDKCFF [Phage-212] to MDWCPRAMWNHCFN [Phage-198], the “Phage binding ELISA CD28 scFv signal in presence of CD28” value rises from 0.094 to 0.426.

First: VDWCPRYLWHVCYN [Phage-189]
Second: MDWCPKDLWHECFN [Phage-168]
The “Phage binding ELISA CD28 scFv signal in presence of CD28” value of the first is lower: 0.061 for the first, 0.1 for the second.

First: MDWCPMNMWYQCFN [Phage-216]
Second: MDWCPRHMWYECFF [Phage-197]
The “Phage binding ELISA CD28 scFv signal in presence of CD28” value of the first is lower: 0.137 for the first, 0.298 for the second.

Compared with MDWCPVSLWDHCFN [Phage-177], MHWCPINLWNECFS [Phage-184] is lower in “Phage binding ELISA CD28 scFv signal in presence of CD28” value: 0.1 for the first, 0.098 for the second.

Going from MDWCPRDMWFECFA [Phage-210] to MDWCPMDMWVNCFN [Phage-193], the “Phage binding ELISA CD28 scFv signal in presence of CD28” value rises from 0.143 to 0.277.

Compared with MDWCPKHLWNECFN [Phage-174], MDWCPRDMWDQCFD [Phage-201] is higher in “Phage binding ELISA CD28 scFv signal in presence of CD28” value: 0.105 for the first, 0.119 for the second.

First: MDWCPSDMWHECYA [Phage-194]
Second: MNWCPSDLWHLCFN [Phage-170]
The “Phage binding ELISA CD28 scFv signal in presence of CD28” value of the first is higher: 0.2 for the first, 0.131 for the second.

Going from MDWCPPYLWYECFA [Phage-172] to IHWCPINMWDKCYN [Phage-206], the “Phage binding ELISA CD28 scFv signal in presence of CD28” value rises from 0.094 to 0.203.

Compared with MSWCPQDLWHVCFN [Phage-167], MDWCPTDMWIVCFA [Phage-208] is higher in “Phage binding ELISA CD28 scFv signal in presence of CD28” value: 0.112 for the first, 0.172 for the second.

First: MDWCPMNLWSECFN [Phage-173]
Second: MFWCPRYLWHECFN [Phage-163]
The “Phage binding ELISA CD28 scFv signal in presence of CD28” value of the first is lower: 0.124 for the first, 0.175 for the second.

Going from MHWCPRSLWNECYF [Phage-182] to QDWCPTYLWHHCFN [Phage-186], the “Phage binding ELISA CD28 scFv signal in presence of CD28” value rises from 0.115 to 0.122.

First: IDWCPRDLWALCFN [Phage-183]
Second: MDWCPTYMWSECFN [Phage-214]
The “Phage binding ELISA CD28 scFv signal in presence of CD28” value of the first is higher: 0.129 for the first, 0.107 for the second.

Compared with MYWCPRDLWDVCFN [Phage-181], MDWCPAYLWAECFS [Phage-175] is higher in “Phage binding ELISA CD28 scFv signal in presence of CD28” value: 0.102 for the first, 0.12 for the second.

First: IDWCPQDMWFYCFN [Phage-209]
Second: MDWCPRYMWYQCFS [Phage-196]
The “Phage binding ELISA CD28 scFv signal in presence of CD28” value of the first is lower: 0.16 for the first, 0.357 for the second.

First: MDWCPKFLWDLCFA [Phage-164]
Second: MDWCPSDLWHECFH [Phage-176]
The “Phage binding ELISA CD28 scFv signal in presence of CD28” value of the first is lower: 0.139 for the first, 0.164 for the second.

For MFWCPMDMWDQCFN [Phage-202], the “Phage binding ELISA CD28 scFv signal in presence of CD28” value was 0.207.

Target: T2, anti-CD28 scFv (VH-linker 1-VL) (biotinylated (site not stated))
T2 construct: Captured as biotinylated scFv on neutravidin coated plates in the phage ELISA
Test: phage ELISA; scFv wells pre-incubated with soluble CD28 (competitor);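 further: crude clonal phage supernatants added to wells pretreated with soluble CD28 in blocking buffer, bound phage read via HRP-linked anti-M13 antibody, reference wells got blocking buffer only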

T2 sequence (scFv, as listed by the source): as above

Compared with MDWCPRFMWDLCFA (on phage (pIII fusion)) [Phage-265 clonal phage peptide], MDWCPRDLWNLCFF (on phage (pIII fusion)) [Phage-236 clonal phage peptide] is lower in “CD28 scFv signal in presence of CD28” value: 0.725 for the first, 0.436 for the second.

Going from MDWCPRSIWYLCFN (on phage (pIII fusion)) [Phage-278 clonal phage peptide] to MDWCPLYLWAECFN (on phage (pIII fusion)) [Phage-298 clonal phage peptide], the “CD28 scFv signal in presence of CD28” value falls from 1.34 to 0.193.

With MDWCPRHLWTECFS (on phage (pIII fusion)) [Phage-297 clonal phage peptide] the “CD28 scFv signal in presence of CD28” value was 0.243.

Source: patent US20230357447A1 (JANUX THERAPEUTICS, published 2023)
